These results are taken from a protein production outcome set (Wang et al. 2014).

The nature of this data set: label from the status in PepcDB records.
Consider “MPVFRRHASQNCASIPPMMLFKRPDTETLYFALVNKDPAYEGVAYVCVTSTKIFCRFTCTARKPKIENCRFRETITECLEAGFRPCKRCKPMLSYGTPDGTVTALLTALENEPARRWREEDVVALGHDPSTVRRSFKRRFGMSFLEIARLRRVGDAAESLASGEAVIGAQIDAGYESGSGFRSAINQLFGTSPAAMKGRGFLKGDWIDTPIGPMLAVADDHALHLLEFADRPALPAELKRLKARTGADMVLGRTAVTGQIAAELAAYFAGRSGSFETRLAGHGTPFERDVWRNLREIPAGEIVSYSSLATAMERPTAVRAVARANGANQLAIVVPCHRVLGADGSLTGYGGGLWRKKWLIEHERRMARGQMLGMPLASLEHHHHHH”, for which the protein production entry is given as “failed”. In the case of “MEPVLTTKDLKHNYVDGSAELLRDPELVDPPFQVSRCAGNNRDLQTGQRSSGCVVTEIVYLSDSPYSSLNLVLRYPTTPAYPSRHFFSGLGHQMRMLSKLRFTLRSPLGLRRQPAPPPPLLVRVSLSSEPGVFIKMDLKDPASLLDLAMQCLLKNEPIIIQSLEEIPRELLIPLFCAAFLGGHKKTLTAIVKVWPFFCLHVGKLRSHETHSALLKAMIDGLQVLPAPNSASRGSKLKILDLRQDANCRTTCFPIRTKSPFCFHSCSYTQTSSRKRKGKHSTVNLGSEVQLSRYPTELLVDLSLDGTLRTSTFLSLLLSKVEQSSGALHLCCRDLQVDKLSDYNNTLKLLNLLCIDHLAVDQASLNDINTLLSQMVHLDSLSLSKITLTSLNAKIFKSFLTQLERMDNLQELNLSFFCLTNRLHKLLRVLPHDLDYLNLPFCELSYRDFRFLSQCPQAAHLKLLNLSNNPISWEDCEPLQTLMENVSGTLQHLEINHCLITDSTIFSLLPALSHCSHLRVLSFASNPITMSMLMRVLENLLPLMELKYVIYPIPVHCYERWYFQGTLDRQKLADVQVQLKAMLQAAQRGDMNWITFSE” it was “failed”; in that of “MTTRDRTAIFKRYREESVVAKRKRSGNDGIQTIGNQSLSGNHKELAPFLNKGSIQTDSHTVFLPPQWLDWYEELSNSVDSVTHQLAQLESLQQNHLLPGFEERSDEESQISELSRNITLLLQRSQERIRLLAPSSSEPNISSEEKLLRTNAQKYFASKLQELSLSFRRNQKEYLRKLQGQNALVEESTDENPLSTSLELEEYDPGFTQEQVMLLENSDQVASERQREIMKIASSINDLATIVKDIASLVIDQGTLLDRIDYNVEEIEVSTEGAVKELEKAKRSQKKG”, “failed”; in that of “MGFLDALMGNASEVDLGKLAAELSPILGDNEELQLAYKMVRDLFVFTSKRLILIDKQGVTGKKVSYHSIPYKAIVHFQVETAGTFDMDAELKLWISGQHEPLVKELKRGTDVVGIQKTIARYALG”, “not failed”. Then “MFDLSSIVDNEQTSDALEDVVMGLIINAGQARSLAYNALKQAKAGDFAQADELMAQSRSALNDAHLVQTQLIEADQGEGKTKVTLVLVHAQDHLMNAMLARELITELIELHQKIQ”, with “failed”. Then “MSSAQFDHVTVIKKSNVYFGGLCISHTVQFEDGTKKTLGVILPTEQPLTFETHVPERMEIISGECRVKIADSTESELFRAGQSFYVPGNSLFKIETDEVLDYVCHLEG”, with “not failed”. Take “MARPRKPTNVLELTGAFKKDPQRRREDAEPVGELTAPPAHINGAVLHAWKEIAKYAPRDVLTNSDRLSLELAANLLAQFRNDPLDFPAAKLVRLEAMLGKFGMTPADRSKVGGGKKDAPKGNAFAEL”: the protein production result is given as “failed”.

“MKSKDSPIINEQFWDALFFNGTMPWDRSQTPNELKHYLKRIADKTHSVFIPGCGAAYEVSHFVDCGHDVIAMDYSAEAVNLAKSQLGQHQDKVMLGDVFNADFSREFDVIYERAFLAALPREIWGDYFAMIERLLPSNGLLVGYFVISDDYRSRFPPFCLRSGEIEQKLEANFHLIESTPVTDSVDVFKGKEQWMVWQKK”: the protein production result is given as “failed”. On to “PGSTDFNGALILGLGIDLEKAVGWKNAFFEVEGLQYNGQPVNFAAGSVQGYNSIEAGPPLNRTELYQLWLNQTFLDNRLSFRVGKLIPSMNFGYVGRPFVTQTNPQLFTSTTGLIYTPVFVGPAMLGFIPGYYNSAFGLYGSWKSWGAPGDNPATPNGWYTQAGIYDGRGAQGVQTGLTWPNFSGALFSVAEVGGTWTPYADDPATGWGSVAVGGWRQSGPLTAPGGAFEAQTGGMYAYLVQKLGKFRDSEDQNGIVGFVQGGWNSSSTALMHSSLGFGLTFIAPFGDRPLDSYGFGFSWARLNANPLAGYGFNSYETMIQLYAQYHLVGNLFIQPVLTVLPTPGSGGAGAPSVSGTVQLTFPF”, for which the protein production result is listed as “failed”. Then “MILNRQTVALMTAGLLAFNSCSLKQMVKMAKDQELTVTPSPLEVHGDSVAFDISATLPVKMLKKNKIYSVSTFYKSGDNKVELGSFDFVSTDYPDAKTTAPQIKKHQAFAYKPEIGNGDLLAVGTASNLDKTKTKSTEEFPIAKGLITTSRLVKDYSYVAYADHGYNNKEELIASTVNFYFEQGKSVLRSSEMKGQNAKFLDAFITAKHVTRTISVIGQHSPEGTETKNTNLANERSVVIEKYVKARMKHFKQDSLVNTIQFVTKGDIKDFEPMKAEIAKSTKLTPEQKSELLNIIAGSGDFTSKQQQIEKLPYYNKSVLAQLYPSLRTARTEIWTVKPKKTDAQISLLAGQITSGKVSVDTLSVEELGYAGTLTPILSEKAAIYEALAKKTDNWVAYNNLGAVYVEMAKVEVDQNKKTELVNKAINTLEMSIKKQDNGEAHVNLASAYILSGVKTSARDEANKAVASNASDAVKKGANGILGTVDIKDGKYELALQDFSKSNDSIQVKFNTALASLLKKDFNTAKAGFANYTAAAPNDAAGFYLAAVTAARLKDEATLTTNLKKAKQLSPKFGERAVSDMEFYDYWNSDNFKNALK”, with “failed”; and “MAGKLDPYRRKRHFGATPEPEGAHGHHAKAGAKPAARASARGTHPLRFVIQEHHARRLHYDFRLELDGTLKSWAVPKGPSFDPSVKRLAVHVEDHPLEYASFEGQIPEGHYGAGSVVVWDEGTWTPDGGVAQAREGYRAGKLTFRLDGEKLHGGWALVRSGRQEGRQEQWLLIKERDDDARSMDEFDVVGERPGSVHDGAASARADAKNGSARGSRSGQREKSGTSAARHDDHRHDGHAGTPIDPSRIEGAVRAPLPEHVAPQLATLVDGPPTQGDWCYELKFDGYRILARISGKGARRHVKLMTREGRDWTAKLRAQRDALAALDVDAAWLDGEAVVLGKNGLPDFQALQNAFGGGHSDEITLFVFDLPYLDGYDLRDAPLTARRALLEPLFADSDPTRLRFSPDLGNDVASLIASACDTGLEGLIGKRAESRYRAGRSPAWIKLKCRRRQEFVIGGYTEPSGSRHGFGALLLGVHEPAADGKRRRGPGPLRYVGRVGTGFDTRMLDRLTPILRKHERDTMPFDPPPRERSRTPVHWIEPVLVAECEFAEWTGDGIVRQAAFIALREDKPAARIVREVPKHTETEVQMEQRQTTRHERHKPKGAARAERDTSDASDGKHPARSRGSRRAEADDTGPDQLGRVRISHPERVIDSHSGTRKIDLARYWQWVAPWLLRDLKGRPVSLVRAPGDISGELFFQKHAERREIPFVTQHEGLDPGHGPLLSLDSVDALLGAAQMGTIELHTWNAHASNIERPDRIVFDLDPDPALPWSAMIDAAQLVRGLLDELGLISFCKTSGGKGLHVVVPITRHMGWDEVKDFSRAVAQHVAGALPDRFTATMGPKHRRGKIFIDYLRNGRGASTIAAYSVRARPGLGVSVPLRWDEVPDTTGGAQWTIDTLHERLDRLKRDPWDGYDDTRQRITAQMRARLGTS”, with “failed”.

Regarding “MLPVSTSVQRSTRQQKITYLYNRNEQSNKKAVTMKTTTTETSIPEEKTTSARIQAYSKSQLAALYLPHIQPASARRTLRSWIAKNTELQAALARSGYTGKAILLTPAQVGLFFRFLGEP”, the protein production entry was “failed”. In the case of “MWLGYMNKSIPTTRKTRTFKAMSIEFSAPAKMKIEVWSDIMCPFCYIGKKRLDDALSTFDQAGRIEVEYKSFELMPGLETHPLRSDVEYLADAKGMSLEQARQMNGQVQAMAQATGLEMNPDETIAANTINAHRLTHFAKAHGKQQEVAQELFKAHFVDGKNVDDLDVLVSIAAEVGLDASAAREALESDVYTNEVQQDVHEARQLGVQGVPFFVFDRKYAINGAQQEEVFTGTVEKAFEEWAAENPVSPFEVIDGQSCSVDGTCN” it was “not failed”; in that of “MSLSSGRTVPTRSHGLGKEGVSTTGASQVEFGDPELTARINDAMVQVEELLHTELSSGEDFLVDIVMHLTRAGGKRFRPMFALLASEFGEKPLSENVIKAAVVVEITHLATLYHDDVMDEASMRRGVPSANARWDNSVAILAGDILLAHASGLMSQLGTDTVAHFAETFGELVTGQMRETVGPRDTDPIEHYTNVIREKTGVLIASAGYLGAMHAGAAPEHIDALKNFGAAVGMIFQIVDDIIDIFSETHESGKTPGTDLREGVFTLPVLYALREDTPVGAELRDILTGPLEDDETVNHVLELLSQSGGRQAALDEVYRYMDIANAELDRLPDSTVKEALRNLATFTVKRVGEGHHHHHH”, “not failed”. Regarding “MKHKGLIRSYEMEFAFLYRLSDLAVIVTFMLLLVLKDTNTSMDKDYVILSFVGGISFLFMAESGNLYRSWRTSSFREQMFIVCMSWLMTSALLFMVLYFSEVYPLFDRSILALWVTITPALLLAWRVTFRTVLAYLRKMGFNTRTAIIIGQTPHGITLANEIQNHTEHGVLFDGFYDERSSDRLPSSEYPIKGAVNQALERAKRGEVDYVYIAMPMHAKERIASILNQFSDTTANTYLIPDFFTYNLLHSRWDQIGQVQTLSVFDTPFAGVSSWIKRFEDILCSSIILVLISPILLAIAIGIKLTSKGPVIFKQHRYGLDGRKIEVWKFRSMTTMDQGPNIKQATKNDPRITPFGSFLRRTSLDELPQFINVLQGTMSIVGPRPHAVAHNEEYRQIVARYMLRHKVKPGITGWAQINGYRGETDTLDKMEKRVEFDLDYIHHWSVWMDIKIIFLTVFKGFTGSNAY”, the protein production entry is on record as “failed”. In the case of “METPAVSLLVAVYNTETYIRTCLESLRNQTMDNIEIIIVNDGSADASPDIAEEYAKMDNRFKVIHQENQGLGAVRNKGIEAARGEFIAFIDSDDWIEPDYCEQMLRTAGDETDLVICNYAAEFEDTGKTMDSDIAQTYQDQPKEHYIKALFEGKVRGFSWNKLYRRSMIEAHRLSFPLRGELEHVEDQFFSFRAHFFARSVSYVKTPLYHYRIHLSSIVQRYQKKLFESGLALYETNAAFLQENNKLEEYRKELDTFIVLHSSICMLNEWKTSGSRRLFEKLRNVGVICADPVFQESLSKTGTAPFDAKRSCLLLMAKYRMIPFVAMASAVYQRVIEYKMRNRG” it was “failed”.

For “MNSVGFYGKLAGRGDFVSRGLPNTFVEPWDAWLASGMRASQDELGAAWLDAYLTSPLWRFAIAPGLLGGEAVTGVVMPSIDRVGRYFPLTVACLLPANADLGGLVGGDDGWFEQVESLLLSTLEPEAEVEAFEQAVAQLPAPPCGPRIEQSLISGNLLRSEAVTPAQRLAALAQHACDGASHWWGRGSARISAGLMRYQGLPPAPAFGRFLTGEGEVIPLFPGIPG”, the protein production entry was “not failed”.
